Test results: the nanobody polyreactivity screen of Harvey et al. (2022)

assay: yeast display, Sf9 membrane polyspecificity reagent, FACS + sequencing; frameworks hold sequencing errors
How it was run: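 Using colony PCR, genes from sorted yeast display clones were amplified, then sequenced on MiSeq at 2 × 250 and filtered by CDR length. The clones had been stained with 10% biotinylated, detergent-solubilized Sf9 membrane reagent for 1 hour at 4 °C and sorted by FACS into low and high (top ~1%) gates on anti-HA and streptavidin fluorescence. Polyreactivity labels come from the gate of origin.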

Row | Sequence | polyreactivity (PSR sort gate)
1 | QVQLVESGGGLVQAGGSLRLSCAASGRTFTSYAMGWYRQAPGKERELVATISTGGSTNYADSVKGRFTISRDNAKNTVYFQMNSLKPEDTAVYYCAAQVDGKRQYYRYDYWGQGTQVTVSS | low polyreactivity
2 | QVQLVESGGGLVQAGGSLRLSCAASGRTFTSYAMGWYRQAPGKERELVAVITWRGVSTYYADSVKGRFTISRDNAKNTVYLQMNSLKPEDTAVYYCAARRPGYYPYKGFDYWGQGTQVTVSS | high polyreactivity
3 | QVQLVESGGGLVQAGGSLRLSCAASGRTFTSYVMGWYIQAPGKERELVAAITRGGRSYYADSVKGRFTISRDNAKKTVYLQMNSLTPEDTAVYYCGARYSVSYNYWGQGTQVTVSS | high polyreactivity
4 | QVQLVESGGGLVQAGGSLRLSCAASGRTFTTNAMGWYRQAPGKERELVAAISRRGGSTYYADSVKGRFTISRDNAKNTVYLQMNSLKPEDTAVYYCYAHLWIRGYDYWGQGTQVTVSS | high polyreactivity
5 | QVQLVESGGGLVQAGGSLRLSCAASGRTFTTNAMGWYRQAPGKERELVAAITIGDDTYYADSVKGRFTISRDNAKNTVYLQMNSLKPEDTAVYYCNVDGRSDGDDYWGQGTQVTVSS | low polyreactivity
6 | QVQLVESGGGLVQAGGSLRLSCAASGRTFTTYAMGWSRQAPGKERELVAAISSGGSTHYADSVKGRFTISRDNAKYTVYLQMNSLKPEDTAVYYCAADKYYYRTSGQEMDYWGQGTQVTVSS | high polyreactivity
7 | QVQLVESGGGLVQAGGSLRLSCAASGRTFTTYTMGWYRQAPGKERELVASINYRGGRTYYADSVKGRFTISRDNAKNTVYLQMNSLKPEDTAVYYCAKRRYYRRRQYYHYDYWGQGTQVTVSS | high polyreactivity
8 | QVQLVESGGGLVQAGGSLRLSCAASGRTFTVYAMGWYRLAPGKERELVAAISSGGITNYADSVKGRFTISRDNAKNTVYLQMNSLKPEDTAVYYCNTKSGKARYEFGYWGQGTQVTLSS | low polyreactivity
9 | QVQLVESGGGLVQAGGSLRLSCAASGRTFTVYAMGWYRQAPGKEREFVAAITERGGSTYYADSVKGRFTISRDNAKNTVYLQMNSLKPEDTAVYYCAAVYYWRPGWYVRFDYWGQGTQVTVSS | low polyreactivity
10 | QVQLVESGGGLVQAGGSLRLSCAASGRTFTVYAMGWYRQAPGKERELVAAISSGGITYYADSVKGRFTISRDNAKNTVYLQMNSLKPEDTAVYYCNTKSGKARYEFGYWGQGTQVTVSS | low polyreactivity
11 | QVQLVESGGGLVQAGGSLRLSCAASGRTFTWNVMGWYRQAPGKERELVAAITTDDRTYADSVKGRFTISRDNAKNTVYLQMNILKPEDTAVYYCATVVAWSSRPVGEDYWGQGTQVTVSS | low polyreactivity
12 | QVQLVESGGGLVQAGGSLRLSCAASGRTFTWYAMGWYRQAPGKEREFVAAISFSGGSTYYADSVKGRFTISRDYAKNTVFLQMNSLKPEDTAVYYCARPSGDAWEGPRMDYWGQGTQVTVSS | low polyreactivity
13 | QVQLVESGGGLVQAGGSLRLSCAASGRTFTWYAMGWYRQAPGKERELVAAISFSGGSTYYADSVKGRFTISRDNAKNTVYLQMNSLKPEDTAVYYCARPSGDAWEGPRMDYWGQGTQVTVSS | low polyreactivity
14 | QVQLVESGGGLVQAGGSLRLSCAASGRTFTYNTMGWYRQAPGKERELVAAISSRGGRTYYADSVKGRFTISRDNAKNTVYLQMHSLKAEDTAVYYCAVYGYYSLSHWDYDYWAQGTQVTVSS | high polyreactivity
15 | QVQLVESGGGLVQAGGSLRLSCAASGRTFTYNVMGWYRQAPGKERELVAAITSGGSTYYADSVKGRFTISRDNAKNTVYLQMNSLKPEDTAVYYGAARGYSYKWDNRYDYWGQGTQVTVSS | high polyreactivity
16 | QVQLVESGGGLVQAGGSLRLSCAASGRTFTYYAMGWSRQAPGKERELVAGISSGGGSTYYADSVKGRFTISRDNAKNSVYFQMNILNPEDTAVYYCATAKRQGCYSEYDYWGQGTQVTVSS | high polyreactivity
17 | QVQLVESGGGLVQAGGSLRLSCAASGRTFTYYAMGWYRPAPGKERELVARITTDGSSTYYADSVKGRFTISRDNAKNTVYLQMNSLKPEDTAVYYCAADFQYAIHTDMDYWGQGTQVTVSS | high polyreactivity
18 | QVQLVESGGGLVQAGGSLRLSCAASGRTFTYYAMGWYRQAPGKEREFVASISLSGGRTYYADSVKGRFTISRDNAKNTVYLQMNSLKPEDTAVYYCNAYYPRVHRSDYWGQGTQVTVSS | low polyreactivity
19 | QVQLVESGGGLVQAGGSLRLSCAASGRTFTYYGMGWYRQAPGKERELVAAISGGGDTNYADSVKGRFTISRDNAKNTVYLQMNSLKPEDTAGYYCAAKRRYYWDYWFYEYDYWGQGTQVTVSS | low polyreactivity
20 | QVQLVESGGGLVQAGGSLRLSCAASGRTFVANAMGWYRQAPGKERELVAAISSSGGSTYYADSVKGRFTISRDNAKNTVYLQMNSLKPEDTAVYYCNRVGVYYRLYPYYYWGQGTQVTVSS | high polyreactivity
21 | QVQLVESGGGLVQAGGSLRLSCAASGRTFVANDMAWYTHAPGKERELFAAISYSGGSTYYADSVKGRFTISRDNAKNTVYLQMNSLKPEDTEVYYCNAYYYGGVRKQHGYWGQVTQVTVSS | low polyreactivity

Row | Sequence | polyreactivity (PSR sort gate)
22 | QVQLVESGGGLVQAGGSLRLSCAASGRTFVDYDMGWYRQAPGKERELVADINSGGSTYYADSVKGRFTISRDNAKNTVYLQMNSLKPEDTAVYYCAARPYYWGQGTQVTVSS | high polyreactivity
23 | QVQLVESGGGLVQAGGSLRLSCAASGRTFVGNAMGWYRQAPGKERELVAAISGRGGSTKYADSVKGRFTISRDYAKNTVYLQMNSLKPEYTAVYYCNAPRNYYKNRAYEYWGQGTKVTVSS | high polyreactivity
24 | QVQLVESGGGLVQAGGSLRLSCAASGRTFVGYAMGWYRQAPGKERELVAAISRTGGSTYYADSVKGRFTISRDNAKNTVYLQMNSLKPEDTAVYYCAASPKRVLRESGDYWGQGTQVTVSS | high polyreactivity
25 | QVQLVESGGGLVQAGGSLRLSCAASGRTFVGYTMGWYRQAPGKERELVAAIDLSDGSTSYADSVKGRFTISRDNAKNTVYFQMNSLKPEDTAVYYCAKTWANVYAGAHDYWGQGTQVTVSS | low polyreactivity
26 | QVQLVESGGGLVQAGGSLRLSCAASGRTFVGYTMGWYRQAPGKERELVAAIDLSDGSTSYADSVKGRFTISRDNAKNTVYLQMNSLIPEDTAVYYCAKTWANVYAGAHDYWGLGTQVTVSS | low polyreactivity
27 | QVQLVESGGGLVQAGGSLRLSCAASGRTFVHYTMGWYRQAPGKERELVATISTSGGSTSYADSVKGRFTISRDNAKNTVYLQMNSLIPEDTAVYYCAARWYFPDRVKYDYWGQGTQVTVSS | low polyreactivity
28 | QVQLVESGGGLVQAGGSLRLSCAASGRTFVIYAMGWYRQAPGKEREFVAAISRSGGSTYYADSVKGRFTISRDNAKNTVYLQMNSLKPEDTAVYYCNTRTPYWVKSDYWGQGTQVTVSS | low polyreactivity
29 | QVQLVESGGGLVQAGGSLRLSCAASGRTFVIYAMGWYRQAPGKEREFVPAISKGGGSTYYADSVKGRFTISRDNAKNTVYLQMNSLKPEDTAVYYCAAGYGTYYQSSRFDYWGQGTQVTVSS | high polyreactivity
30 | QVQLVESGGGLVQAGGSLRLSCAASGRTFVLNAMGWYRQAPGKERELVAAITLGGGSTYADSVKGRLTISRDNAKNTVYLQMNSLKPEDTEVYYCNKASGVFYGHLDYWGQGTQVTVSS | low polyreactivity
31 | QVQLVESGGGLVQAGGSLRLSCAASGRTFVLYAMGWYRQAPGKERELVASITSGGSTNYADSVKGRFTISRDNAKNTVYLQMNSLKPEDTAVYYCNADLDVYLWFIFTVYQDDYDYWGQGTQVTVSS | high polyreactivity
32 | QVQLVESGGGLVQAGGSLRLSCAASGRTFVPYAMGWYRQAPGKERELVAAINSGGSTYYADSVKGRFTISRDNAKNTVYLQMNSLKPEDTAVYYCAAEYWNSRFSYAYGYWGQGTQVTVSS | high polyreactivity
33 | QVQLVESGGGLVQAGGSLRLSCAASGRTFVPYAMGWYRQAPGKERELVAAISYSGDSTYYADSVKGRFTISRDNAKNTVYLQMNSLKPEDTAVYYCAARGGNPFYYWGQGTQVTVSS | low polyreactivity
34 | QVQLVESGGGLVQAGGSLRLSCAASGRTFVRNAMGWYRQAPGKERELVAAINSGGSTNYADSLKGRFTISRDNPKNTVYLQMNSLKPEDTAVYYCNAPRQHVGNGNYWGQGTQVTVSS | low polyreactivity
35 | QVQLVESGGGLVQAGGSLRLSCAASGRTFVRYAMGWYRQAPGKERELVAAISTSGGNTYYADSVKGRFTISRDNAKNTVYLQMNSLKPEDTAVYYCAKDRGPNAKFDYWGQGTQVTVSS | low polyreactivity
36 | QVQLVESGGGLVQAGGSLRLSCAASGRTFVRYAMGWYRQAPGKERELVAAITSGGSTYADSVKGRFTISRDNAKNTVYLQMNSLKPEDTAVYYCAARRYPSYGSWGQGTQVTVSS | low polyreactivity
37 | QVQLVESGGGLVQAGGSLRLSCAASGRTFVRYAMGWYRQAPGKERELVARITSRGTSTYYADSVKGRFTISRDNAKNTVYLQMNSLKPEDTAVYYCNKVRTFRDKSRYDYWGQGTQVTVSS | low polyreactivity
38 | QVQLVESGGGLVQAGGSLRLSCAASGRTFVRYAMGWYRQAPGKERELVARITSSGGSTYYADSVKGRFTISRDNAKNTVYLQMNSLKPEDTAVYYCAKDTAFYRFQGHYGYWGQGTQVTVSS | high polyreactivity
39 | QVQLVESGGGLVQAGGSLRLSCAASGRTFVSYAMGWYRQAPGKERELVAAIRWGTGSRTYYADSVKGRFTISRDNAKNTVYLQMNSLKPEDTAVYYCAKTDWYPYGYWGQGTQVTVSS | low polyreactivity
40 | QVQLVESGGGLVQAGGSLRLSCAASGRTFVSYAMGWYRQAPGKERELVAAIRYRGGSTYYADSVKGRFTISRDNAMNTVYLQMNSLKPEDTAVYYCAANQGRYNIYSNYDYWGQGTQVTVSS | high polyreactivity
41 | QVQLVESGGGLVQAGGSLRLSCAASGRTFVTNTMGWYRQAPGKEREFVAAITWNGGGTYYADSVKGRFTISRDNAKNTVYLQMNSLKPEDTAVYYCAARGRTDSYWRFYHWGQGTQVTVSS | high polyreactivity
